In the test the target is GST-V-1 (human) (UniProt P58546). The test can be described thus: SPR; GST-fusion protein (GST-V-1, GST-CA or GST-CD) immobilised on a CM5 chip via anti-GST antibodies (up to 200 RU), CP perfused at 20 µl/min; 20°C; 50 mM KCl, 1 mM MgCl2, 0.005% Tween-20, 10 mM imidazole pH 7.0; 1:1 fit, KD from the kinetic rate constants (steady state for several fast-dissociating mutants).
GST-V-1 (human), sequence (P58546 whole entry, the tested form may be a part): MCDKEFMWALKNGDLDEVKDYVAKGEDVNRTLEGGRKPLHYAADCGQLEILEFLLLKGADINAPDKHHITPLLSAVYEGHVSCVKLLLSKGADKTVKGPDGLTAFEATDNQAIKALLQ

“CP with mutations of residues which form the “basic triad” (CP (α) Lys256, Arg260, Arg266)” returned a fold reduction of the affinity against the wild type proteins of more than 25 fold.
